The record followed here is US20040185525A1, “Process for producing peptide” (priority 2001, published 2004).

The assay deals with T1, GPR8 (Homo sapiens, UniProt P48146).
T1 construct: expressed in transfected cells; host or cells: CHO cells (membrane fraction)
As to the kind of experiment: GTPγS binding activity using a cell membrane fraction of CHO cells expressing GPR8. Conditions: fraction containing cell membrane of CHO cells expressing GPR8; compared with synthetic hGPR8L; process of Example 6 in WO 01/98494. Format: biochemical. The source says:
FIG. 4 is a graph showing the GTPγS binding activity of hGPR8L (SEQ ID NO: 44) of Example 1 to 3 toward CHO cells expressing GPR8. The horizontal axis indicates the concentration of hGPR8L while the vertical axis indicates the GTPyS binding activity. The solid points (-•-) indicate the results obtained for a synthetic hGPR8L (SEQ ID NO: 44) while the open points (-∘-) indicate the results obtained for hGPR8L (SEQ ID NO: 44) produced by the method of the present invention (tandem repeat technique).
Using a fraction containing cell membrane of CHO cells expressing GPR8, the GTPγS binding activity of the hGPR8L obtained above was determined by the same process as described in Example 6 in WO 01/98494.
On the technique in general: GTPγS is a poorly hydrolysed GTP analogue; its binding reports G protein activation.

T1 sequence (P48146 whole entry): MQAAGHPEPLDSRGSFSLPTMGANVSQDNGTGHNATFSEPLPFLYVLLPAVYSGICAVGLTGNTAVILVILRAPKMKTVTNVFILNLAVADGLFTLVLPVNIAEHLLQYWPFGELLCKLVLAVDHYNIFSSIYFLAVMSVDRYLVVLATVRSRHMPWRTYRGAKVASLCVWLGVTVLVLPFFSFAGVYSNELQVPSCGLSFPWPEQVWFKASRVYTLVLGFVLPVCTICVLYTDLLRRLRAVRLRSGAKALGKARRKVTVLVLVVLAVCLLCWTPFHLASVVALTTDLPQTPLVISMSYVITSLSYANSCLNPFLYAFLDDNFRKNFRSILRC

For “hGPR8L: 23-residue ligand polypeptide for human GPR8 (SEQ ID NO: 44), produced by the tandem repeat technique in E. coli (WYKHVASPRYHTVGRAAGLLMGL; Human)”, the GTPγS binding activity entry is on record as “equivalent to that of the artificially synthesized protein”.
